In this data set the test system is pathway specific substrates. Put plainly: Enzyme functionality of pathway enzyme homologs and fusion constructs in lysed E. coli cell extracts, product by HPLC. The format is biochemical, E. coli BL21. Particulars: recombinant E. coli BL21 clone, lysed cell extract. The method, boiled down: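 Enzymes and fusion constructs were expressed in E. coli BL21 (pET28, T7 promoter) with 0.1 mM IPTG at 30 °C for ~20 h in M9 medium. Cleared freeze-thaw lysates were incubated with pathway-specific substrates. Products were quantified by HPLC relative to empty-plasmid lysates.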

B1: Caffeoyl CoA O-methyltransferase (CCoAOMT) (SEQ ID NO: 18) Chamaecyparis formosensis (protein)
chain: MATVEATKDSTQQVSRHQEVGHKSLLQSDALYQYILETSVYPREPEPMRELREITAKHPWNLMTTSADEGQFLHLLLKLINAKNTMEIGVYTGYSLLSTALALPDDGKILAMDINRENYELGLPVIQKAGVAHKIDFREGPALPVLDQMLENKEMHGSFDFIFVDADKDNYLNYHKRLIDLVKIGGVIGYDNTLWNGSVVAPPDAPMRKYVRYYRDFVIELNKALAADPRIEISQIPVGDGITLCRRII
modifications: Depicts the amino acid sequence of Caffeoyl CoA O-methyltransferase (CCoAOMT) of Chamaecyparis formosensis
For the molecule B1, the “Enzyme activity in terms of product formation (in %)” value (“Enzyme activity in terms … (in %)” below) (substrate tested: Caffeoyl coA) was determined as 95%.

B2: hydroxycinnamoyl-CoA: quinate hydroxycinnamoyltransferase p-coumaroyl quinate 3′-hydroxylase fusion (HCTC3H) (SEQ ID NO: 14) Coffea canephora (protein, listed as Coffea canephora)
chain: MKIEVKESTMVRPAQETPGRNLWNSNVDLVVPNFHTPSVYFYRPTGSSNFFDAKVLKDALSRALVPFYPMAGRLKRDEDGRIEIECNGEGVLFVEAESDGVVDDFGDFAPTLELRRLIPAVDYSQGISSYALLVLQVTYFKCGGVSLGVGMRHHAADGFSGLHFINSWSDMARGLDVTLPPFIDRTLLRARDPPQPQFQHIEYQPPPALKVSPQTAKSDSVPETAVSIFKLTREQISALKAKSKEDGNTISYSSYEMLAGHVWRCACKARGLEVDQGTKLYIATDGRARLRPSLPPGYFGNVIFTATPIAIAGDLEFKPVWYAASKIHDALARMDNDYLRSALDYLELQPDLKALVRGAHTFKCPNLGITSWVRLPIHDADFGWGRPIFMGPGGIAYEGLSFILPSPTNDGSMSVAISLQGEHMKLFQSFLYDIGGGGSGGGGSGGGGSMALLLILLPVAFIFLAYSLYERLRFKLPPGPRPKPVVGNIYDIKPVRFKCYAEWSKLYGPIFSVYFGSQLNTVVNTAELAKEVLKDNDQQLADRYRSRPSARMSRNGQDLIWADYGPHYVKVRKLCNLELFTPKRLEGLRPLREDEVTAMVDSIFKDCTKPENKGKSLLMRNYLGSVAFNNITRLTFGKRFMNSEGVVDEQGQEFKGIVSNGIRIGAKLSVADHIPWLRWMFVGENEDLDKHNARRDKLTRMIMEEHTLARQKSGNTKQHFVDALLTLQKQYELSDDTVIGLLWDMITAGMDTTTISVEWAMAELVKNPRVQQKAQEELDRVIGSDRIMTEADFAKLPYLQCVAKEALRLHPPTPLMLPHRANANVKIGGYDIPKGSIVHVNVWAIARDPAAWKNPLEFRPERFLEEDVDIKGHDYRLLPFGAGRRICPGAQLALNLVTSMLGHLLHHFTWSPPPGVRPEEIDLEESPGTVTYMRTPLQAVATPRLPAHLYNRVPVE
Consider B2, for which the “Enzyme activity in terms … (in %)” value (substrate tested: Coumaroyl coA) was determined as 89%.

B3: Caffeoyl CoA O-methyltransferase (CCoAOMT) (SEQ ID NO: 16) Eleocharis dulcis (protein)
chain: MSTTTTTQTKTETQSQTGAQNGAEQQTRHSEVGHKSLLQSDALYQYILETSVYPREPECMKELRDITAKHPWNLMTTSADEGQFLNLLLKLIGAKKTMEIGVYTGYSLLATALAIPEDGTILAMDINRENYELGLPVIEKAGVAHKIDFREGPALPVLDQLIEDPANLGSFDFIFVDADKDNYLNYHKRLIELVKVGGVIGYDNTLWNGSVVLPADAPMRKYIRYYRDFVLELNKALAADPRIEISQLPVGDGITLCRRVK
modifications: Depicts the amino acid sequence of enzyme Caffeoyl CoA O-methyltransferase (CCoAOMT)
As to B3, the “Enzyme activity in terms … (in %)” value (substrate tested: Caffeoyl coA) is on record as 61%.

(Values after US11898183B2, “Programmed microorganisms to attenuate a disease” (priority 2020, dated 2024).)
